Test results: publication PMC6406907, “A H2AX–CARP-1 Interaction Regulates Apoptosis Signaling Following DNA Damage” (Cancers, 2019)
One block for each molecule: values may come before it.

Legend:
[1] = system: MDA-MB-468 cells; experiment: MTT cell viability/growth inhibition, MDA-MB-468; format: cell-based, human; details: MDA-MB-468 CARP-1 (Δ600–650) vs WT CARP-1-expressing counterparts, MTT, mean of three experiments
Experimental: (§1) Routine maintenance and culture of MDA-MB-468 (lacking estrogen receptor; ER and having mutant p53) human triple-negative breast cancer (TNBC) cells, human cervical cancer HeLa, human kidney cancer UOK 262, non-small-cell lung cancer H1975, and HCC827 cells was carried out essentially as described previously. Generation and characterization of MDA-MB-468 cells expressing reduced CARP-1 was described previously. The stable sublines were generated by transfecting the MDA-MB-468 and Hela cells with the pcDNA3 vector, pcDNA3-CARP-1 wild-type (WT)-myc-His clone 6.1.2, pcDNA3-CARP-1(Δ600–650)-myc-His, pcDNA3-EGFP, pcDNA3-EGFP-H2AX (1–35), or pcDNA3-EGFP-CARP-1 (636–650) plasmids, followed by selection in the presence of 800 μg/mL neomycin using described methods. The cell lysates from wild-type, untransfected cells, neomycin-resistant pools, or individual sublines were then subjected to MTT-based viability, confocal, immunoprecipitation (IP), and Western blot (WB) analyses as below.
(§2) The cell growth inhibition was assessed using an MTT assay following the established protocols described by us previously.
(§3) Here, we utilized human TNBC MDA-MB-468 and human cervical cancer HeLa cells to conduct an MTT-based dose-response analysis using Adriamycin and CFM compounds. […] Since Adriamycin, CFM-4, and CFM-4.16 have molecular masses of 543.3, 404.9, and 440.3, respectively, we chose to use an equimolar dose of each compound in the MTT assays. […] Prior reports established that phosphorylation of H2AX at serine 139 (γ-H2AX) is involved in DNA damage repair and apoptotic signaling by ATM/ATR and JNKs, respectively. Next, the MDA-MB-468, HeLa, and the kidney cancer UOK 262 cells were treated with a 10 μM dose of the CFM-4.16 or Adriamycin for various time periods. The cell lysates from the control, untreated, and treated cells were analyzed by WB for expression of CARP-1, phospho-JNK1/2, phospho-H2AX, and poly ADP ribose polymerase (PARP) proteins. […] The H2AX activation is also indicative of DNA damage and involves pro-apoptotic JNKs. Our data in Figure 1C and Figure S1B,C (Supplementary Materials) also show activation of JNKs; however, a robust JNK activation is co-incident with H2AX phosphorylation following treatments with Adriamycin or CFM-4.16.
Figure 7 Disruption of H2AX interaction with CARP-1 results in enhanced viabilities of CFM-4-, CFM-4.16-, or Adriamycin-treated cells in part due to reduced apoptosis. (A,C,D) Indicated MDA-MB-468 cell lines were treated with DMSO (Control), or with the noted dose and time of Adriamycin, CFM-4, or CFM-4.16 compounds. Determination of viable/live cells was carried out by MTT assay as described in Section 2. (B,E,F) Cell lysates derived from vehicle DMSO (Control), or CFM-4-, CFM-4.16-, or Adriamycin-treated cells were added to the wells that had immobilized fluorogenic substrates of noted caspases. The fluorescence released from the activated caspase-dependent cleavage of respective substrate was detected by a plate reader at the excitation and emission wavelengths of 380 nm and 460 nm, respectively, as detailed in Section 2. The columns in bar charts in panels A, C, D and B, […] represent means of three and two independent experiments, respectively; bars, SE. For panels C and D, * p < 0.05, **p < 0.01 and *** p ≤ 0.001 relative to the respective EGFP vector subline. For panels E and F, *** p ≤ 0.05 relative to the respective EGFP vector subline.
Figure 8 Ectopic expression of TAT-CARP-1 (636–650) peptide results in enhanced viabilities of Adriamycin-treated cells. MDA-MB-468 (A) or HeLa (B) cells were pre-incubated with 300 μg/mL indicated peptides for 72 h, followed by treatments with the noted dose and time of Adriamycin. Determination of viable/live cells was carried out using an MTT assay as described in Section 2. […]

[2] = system: HeLa cells; experiment: MTT cell viability/growth inhibition, HeLa; format: cell-based, human; details: HeLa CARP-1 (Δ600–650) vs WT CARP-1-expressing counterparts, mean of three experiments
Experimental: as §1, §2, §3
Figure 8 Ectopic expression of TAT-CARP-1 (636–650) peptide results in enhanced viabilities of Adriamycin-treated cells. MDA-MB-468 (A) or HeLa (B) cells were pre-incubated with 300 μg/mL indicated peptides for 72 h, followed by treatments with the noted dose and time of Adriamycin. Determination of viable/live cells was carried out using an MTT assay as described in Section 2. The bar charts in panels A and B represent means of three and two independent experiments, respectively; bars, SE. (C) Indicated cells were either pre-incubated with 6 μg/mL indicated peptides for 72 h or not (Control), followed by treatments with Adriamycin as noted. Cells were then processed for immunofluorescence staining for TAT-CARP-1 peptide (red), γH2AX (green), and DAPI (blue) as detailed in Section 2 and Figure S3 (Supplementary Materials). Insets in C show enlarged areas of respective photomicrographs to indicate presence of TAT-CARP-1 peptide and γH2AX in respective columns. The insets in the top and middle rows of the merge column show co-localization of TAT-CARP-1 peptide, and γH2AX (magnification: 250×).
Figure S7. Disruption of H2AX interaction with CARP-1 results in enhanced viabilities of CFM-4, CFM-4.16, or Adriamycin-treated cells in part due to reduced γH2AX and apoptosis. (A,B,C) Indicated HeLa cell lines were treated with DMSO (Control), noted dose and time of Adriamycin, CFM-4, or CFM-4.16 compounds. Determination of viable/live cells was carried out by MTT assay as in methods. The columns in bar charts in panels A, B, C represent means of three independent […]
experiments; bars, SE. […]

[3] = target: CARP-1 (636–650) peptide, biotin-labelled (human) (UniProt Q8IX12); experiment: SPR; SPRi (PlexArray HT); CARP-1 (636–650) peptide printed on bare gold-coated PlexArray Nanocapture chip, blocked with 5% non-fat milk; PBST pH 7.4, 25 °C; global fit to a 1:1 interaction model
[4] = system: Gst-H2AX; experiment: Gst-pulldown with Gst-H2AX; format: binding, human; details: E. coli-expressed, 4 °C, 2 h, WB anti-HA, Figure 5A
Experimental: Logarithmically growing cells were either untreated or treated with different agents for various time periods. The cells were lysed to prepare protein extracts. IP was carried out by incubating approximately 1 mg of the protein lysate with appropriate antibodies. The immunoprecipitates were then analyzed by SDS-PAGE, followed by WB with respective, interacting protein. For Gst-pulldown, Gst-H2AX or various His-TAT-HA-tagged CARP-1 peptides were generated in Escherichia coli (E. coli) BL21 cells essentially as described by us previously. Briefly, the competent E. coli BL-21 (DE3) pLysS cells were transformed separately with various recombinant pGEX-4T-1 or pTAT-HA constructs. The transformed cells were then subjected to selection by combined presence of ampicillin and chloramphenicol; various isolates for each transformation were obtained and bacterial lysates were characterized for expression of fusion peptides. Cells from each isolate were grown in 4 mL of LB medium containing ampicillin only until the optical density (OD)600 reached 0.4–0.8. Expression of fusion peptides was induced over 2–4 h incubation periods after Isopropyl β-D-1-thiogalactopyranoside (IPTG) addition. The cells were harvested, and pellets were stored at −80 °C overnight. […]

Molecule: O=C1N(Cc2ccccc2Cl)c2ccccc2C12NN=C(c1ccccc1)S2 (stereo not drawn) [CFM-4]
growth inhibition of CARP-1 (Δ600–650)-expressing cells [1]: resistant to inhibition by CFM-4 or ADR
growth inhibition of CARP-1 (Δ600–650)-expressing cells [2]: resistant to inhibition by CFM-4 or ADR

Kd [3]: 126 nM
koff [3]: 0.000292 s⁻¹
kon [3]: 2320 M⁻¹ s⁻¹
Molecule: H2AX (1–35) peptide (from UniProt P16104 1-35)

binding with Gst-H2AX protein [4]: bound with Gst-H2AX protein
B1: His-TAT-HA-CARP-1 (552–654): E. coli-expressed His-TAT-HA-tagged CARP-1 peptide (peptide)
chain: RPEETHKGRTVPAHVETVVLFFPDVWHCLPTRSEWETLSRGYKQQLVEKLQGERKEADGEQDEEEKDDGEAKEISTPTHWSKLDPKTMKVNDLRKELESRALS
modifications: left off: His, end not stated, kept | TAT, end not stated, kept | HA, end not stated, kept
notes: E. coli-expressed His-TAT-HA-tagged CARP-1 peptide
